Ends that are not written are not given here.
Key:
hMC3R = hMC3R (human, UniProt P41968 1-323); assay: cell-based or functional assay
hMC4R = hMC4R (human, UniProt P32245 1-332); assay: cell-based or functional assay
Chain of hMC4R (P32245 whole entry): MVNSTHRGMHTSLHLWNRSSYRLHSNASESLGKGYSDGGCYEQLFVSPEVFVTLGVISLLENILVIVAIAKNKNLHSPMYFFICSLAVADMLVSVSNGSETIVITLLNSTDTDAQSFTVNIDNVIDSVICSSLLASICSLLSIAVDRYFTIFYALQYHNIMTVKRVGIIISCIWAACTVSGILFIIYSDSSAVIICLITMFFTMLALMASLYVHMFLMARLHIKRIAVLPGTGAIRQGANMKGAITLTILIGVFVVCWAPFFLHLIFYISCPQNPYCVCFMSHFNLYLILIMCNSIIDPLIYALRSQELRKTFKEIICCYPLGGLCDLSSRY

Chain of hMC3R (P41968 whole entry): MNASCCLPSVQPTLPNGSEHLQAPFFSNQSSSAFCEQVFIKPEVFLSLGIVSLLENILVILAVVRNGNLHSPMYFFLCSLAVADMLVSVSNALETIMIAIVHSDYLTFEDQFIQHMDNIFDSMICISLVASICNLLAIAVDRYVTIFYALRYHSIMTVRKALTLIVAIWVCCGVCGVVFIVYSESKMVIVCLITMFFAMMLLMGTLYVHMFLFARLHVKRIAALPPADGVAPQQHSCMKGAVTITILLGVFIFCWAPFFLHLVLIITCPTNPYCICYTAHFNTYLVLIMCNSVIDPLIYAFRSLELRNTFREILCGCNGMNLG

B1: AgRP(87-120) (peptide)
peptide: Ac-CVRLHESCLGQQVPCCDPAATCYCRFFNAFCYCR-NH2
modifications: disulfide (positions not given here); not fully specified; also: oxidatively folded, disulfide pairing not given here
EC50 (nM), NDP-MSH stimulated cAMP production in the presence of 0.10 µM AgRP protein (hMC3R): 5.5 nM

SSRRCVRLHESCLGQQVPCCDPCATCYCRFFNAFCYCRQLGTAMNPCSQT-NH2 (disulfide (positions not given here)) [AgRP-2Q]
EC50 (nM), NDP-MSH stimulated cAMP production in the presence of 0.10 µM AgRP protein (hMC3R): 9.22 nM
EC50 (nM), NDP-MSH stimulated cAMP production in the presence of 0.10 µM AgRP protein (hMC4R): 6.66 nM

SSRRCVRLHESCLGQQVPCCDPCATCYCRFFNAFCYCRKLKTKMNPCSRT-NH2 (disulfide (positions not given here)) [AgRP-2K]
EC50 (nM), NDP-MSH stimulated cAMP production in the presence of 0.10 µM AgRP protein (hMC3R): 16.1 nM
EC50 (nM), NDP-MSH stimulated cAMP production in the presence of 0.10 µM AgRP protein (hMC4R): 4.54 nM

SSQQCVRLHESCLGQQVPCCDPCATCYCRFFNAFCYCRQLGTAMNPCSQT-NH2 (disulfide (positions not given here)) [AgRP-4Q]
EC50 (nM), NDP-MSH stimulated cAMP production in the presence of 0.10 µM AgRP protein (hMC3R): 1.62 nM
EC50 (nM), NDP-MSH stimulated cAMP production in the presence of 0.10 µM AgRP protein (hMC4R): 1.8 nM

KKRRCVRLHESCLGQQVPCCDPCATCYCRFFNAFCYCRKLKTKMNPCSRT-NH2 (disulfide (positions not given here)) [AgRP-4K]
EC50 (nM), NDP-MSH stimulated cAMP production in the presence of 0.10 µM AgRP protein (hMC3R): 2.66 nM
EC50 (nM), NDP-MSH stimulated cAMP production in the presence of 0.10 µM AgRP protein (hMC4R): 1.72 nM

B2: AgRP(83-120) (peptide)
peptide: SSRRCVRLHESCLGQQVPCCDPAATCYCRFFNAFCYCR-NH2
modifications: disulfide (positions not given here); not fully specified; also: oxidatively folded, disulfide pairing not given here
EC50 (nM), NDP-MSH stimulated cAMP production in the presence of 0.10 µM AgRP protein (hMC3R): 2.96 nM
EC50 (nM), NDP-MSH stimulated cAMP production in the presence of 0.10 µM AgRP protein (hMC4R): 4.92 nM

— US20140148397A1 (University of California, published 2014)
